B1: ZNF449 (parent)
chain: CTHCSKSFRQRAGLIMHQVTHFRG
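Further: lentivirally expressed fusions sorted by FACS into six bins by GFP to DsRed ratio, PSI derived from sequencing read proportions per bin multiplied by bin number.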

The variants in this series derive from B1. Nature of the series: protein stability index of a GFP-peptide fusion (GPS, HEK-293T) (PSI 1-6); higher = more stable. The settings on record: c terminus: a fixed tail appended.
Turning to CTHCSKSFEQRAGLIMHQVTHFRG, the protein stability index is 2.15.

As to CTHCSKSFGQRAGLIMHQVTHFRG, the protein stability index was found to be 2.18.

As to CTHCSKSFDQRAGLIMHQVTHFRG, the protein stability index stood at 3.85.

With CTHCSKSFNQRAGLIMHQVTHFRG, the protein stability index is 2.77.

Turning to CTHCSKSFVQRAGLIMHQVTHFRG, the protein stability index turned out to be 3.17. Regarding CTHCSKSFYQRAGLIMHQVTHFRG, the protein stability index came out at 1.79. CTHCSKSFSQRAGLIMHQVTHFRG: the protein stability index worked out at 3.04.

Regarding CTHCSKSFQQRAGLIMHQVTHFRG, the protein stability index came to 2.63.

As to CTHCSKSFCQRAGLIMHQVTHFRG, the protein stability index worked out at 2.33. In the case of CTHCSKSFMQRAGLIMHQVTHFRG, the protein stability index was 2.9. As to CTHCSKSFAQRAGLIMHQVTHFRG, the protein stability index amounted to 2.58. The figure for CTHCSKSFKQRAGLIMHQVTHFRG is 2.81. The figure for CTHCSKSFPQRAGLIMHQVTHFRG is 2.29. With CTHCSKSFIQRAGLIMHQVTHFRG, the protein stability index was determined as 1.94. On to CTHCSKSFWQRAGLIMHQVTHFRG, for which the protein stability index is 2.07.

Take CTHCSKSFHQRAGLIMHQVTHFRG: the protein stability index was found to be 1.87. Turning to CTHCSKSFTQRAGLIMHQVTHFRG, the protein stability index worked out at 2.77. As for CTHCSKSFLQRAGLIMHQVTHFRG, the protein stability index was found to be 1.96.

For CTHCSKCFRQRAGLIMHQVTHFRG, the protein stability index came out at 2.98. Regarding CTHCSKFFRQRAGLIMHQVTHFRG, the protein stability index worked out at 2.49. CTHCSKLFRQRAGLIMHQVTHFRG: the protein stability index was 2.69. Regarding CTHCSKQFRQRAGLIMHQVTHFRG, the protein stability index is 1.76. The figure for CTHCSKMFRQRAGLIMHQVTHFRG is 1.57; for CTHCSKPFRQRAGLIMHQVTHFRG it is 1.59; for CTHCSKTFRQRAGLIMHQVTHFRG it is 1.08. With CTHCSKWFRQRAGLIMHQVTHFRG, the protein stability index came out at 1.78. With CTHCSKVFRQRAGLIMHQVTHFRG, the protein stability index is 2.22.

Take CTHCSKYFRQRAGLIMHQVTHFRG: the protein stability index was 2.44. As to CTHCSKAFRQRAGLIMHQVTHFRG, the protein stability index was found to be 2.14. As for CTHCSKEFRQRAGLIMHQVTHFRG, the protein stability index amounted to 2.29. Take CTHCSKIFRQRAGLIMHQVTHFRG: the protein stability index was 1.73. Take CTHCSKNFRQRAGLIMHQVTHFRG: the protein stability index came out at 2.58. Under CTHCSKDFRQRAGLIMHQVTHFRG stands 2.18.

Regarding CTHCSKRFRQRAGLIMHQVTHFRG, the protein stability index turned out to be 1.31. With CTHCSKKFRQRAGLIMHQVTHFRG, the protein stability index was 2.62. Regarding CTHCSKSFRQRQGLIMHQVTHFRG, the protein stability index is 3.53. Under CTHCSKSFRQRWGLIMHQVTHFRG stands 2.53; under CTHCSKSFRQRIGLIMHQVTHFRG, 2.36. As for CTHCSKSFRQRMGLIMHQVTHFRG, the protein stability index was 2.25. The figure for CTHCSKSFRQRNGLIMHQVTHFRG is 2.06; for CTHCSKSFRQRKGLIMHQVTHFRG it is 3.49.

For the variant CTHCSKSFRQRRGLIMHQVTHFRG, the protein stability index was 3.35. CTHCSKSFRQRYGLIMHQVTHFRG: the protein stability index worked out at 1.9.

CTHCSKSFRQRFGLIMHQVTHFRG: the protein stability index was determined as 2.25. As to CTHCSKSFRQREGLIMHQVTHFRG, the protein stability index was 3.82. Regarding CTHCSKSFRQRDGLIMHQVTHFRG, the protein stability index worked out at 3.09.

Take CTHCSKSFRQRPGLIMHQVTHFRG: the protein stability index amounted to 2.69. With CTHCSKSFRQRHGLIMHQVTHFRG, the protein stability index amounted to 1.88. In the case of CTHCSKSFRQRGGLIMHQVTHFRG, the protein stability index turned out to be 2.44. The figure for CTHCSKSFRQRTGLIMHQVTHFRG is 2.2. As for CTHCSKSFRQRVGLIMHQVTHFRG, the protein stability index turned out to be 1.48.

For CTHCSKSFRQRCGLIMHQVTHFRG, the protein stability index was 2.29. As to CTHCSKSFRQRLGLIMHQVTHFRG, the protein stability index was 2.11. The figure for CTHCSKSFRQRAGLAMHQVTHFRG is 2.39; for CTHCSKSFRQRAGLFMHQVTHFRG it is 2.4. As for CTHCSKSFRQRAGLEMHQVTHFRG, the protein stability index was 3.59. For CTHCSKSFRQRAGLHMHQVTHFRG, the protein stability index is 2.2. Regarding CTHCSKSFRQRAGLGMHQVTHFRG, the protein stability index was found to be 1.94.

Turning to CTHCSKSFRQRAGLDMHQVTHFRG, the protein stability index worked out at 2.93.

Take CTHCSKSFRQRARLIMHQVTHFRG: the protein stability index is 2.65. Regarding CTHCSKSFRQRATLIMHQVTHFRG, the protein stability index came to 2.36. With CTHCSKSFRQRAQLIMHQVTHFRG, the protein stability index came to 2.87.

As to CTHCSKSFRQRALLIMHQVTHFRG, the protein stability index worked out at 1.68.

Regarding CTHCSKSFRQRAKLIMHQVTHFRG, the protein stability index was 2.06.

Regarding CTHCSKSFRQRAELIMHQVTHFRG, the protein stability index is 3.16.

In the case of CTHCSKSFRQRAILIMHQVTHFRG, the protein stability index came out at 1.96. As for CTHCSKSFRQRAFLIMHQVTHFRG, the protein stability index was 1.95.

Consider CTHCSKSFRQRANLIMHQVTHFRG, for which the protein stability index was determined as 2.69. In the case of CTHCSKSFRQRAPLIMHQVTHFRG, the protein stability index was found to be 1.23. Under CTHCSKSFRQRAALIMHQVTHFRG stands 2.47; under CTHCSKSFRQRAMLIMHQVTHFRG, 2.12; under CTHCSKSFRQRAYLIMHQVTHFRG, 1.31. Under CTHCSKSFRQRASLIMHQVTHFRG stands 1.52. As for CTHCSKSFRQRACLIMHQVTHFRG, the protein stability index was found to be 1.07. As for CTHCSKSFRQRAHLIMHQVTHFRG, the protein stability index is 1.4. Consider CTHCSKSFRQRAVLIMHQVTHFRG, for which the protein stability index came out at 2.58. For CTHCSKSFRQRAWLIMHQVTHFRG, the protein stability index was determined as 1.87.

For the variant CTHCSKSFRKRAGLIMHQVTHFRG, the protein stability index worked out at 2.58.

Turning to CTHCSKSFRLRAGLIMHQVTHFRG, the protein stability index was 1.59. For CTHCSKSFRNRAGLIMHQVTHFRG, the protein stability index is 2.15.

In the case of CTHCSKSFRHRAGLIMHQVTHFRG, the protein stability index was found to be 2.13. Turning to CTHCSKSFRERAGLIMHQVTHFRG, the protein stability index stood at 2.61. CTHCSKSFRYRAGLIMHQVTHFRG: the protein stability index amounted to 1.95.

CTHCSKSFRTRAGLIMHQVTHFRG: the protein stability index is 2.75. Turning to CTHCSKSFRFRAGLIMHQVTHFRG, the protein stability index was 1.9. Regarding CTHCSKSFRPRAGLIMHQVTHFRG, the protein stability index was determined as 1.76. Take CTHCSKSFRVRAGLIMHQVTHFRG: the protein stability index was 2.19.

As for CTHCSKSFRSRAGLIMHQVTHFRG, the protein stability index came to 1.99. Under CTHCSKSFRRRAGLIMHQVTHFRG stands 1.6; under CTHCSKSFRARAGLIMHQVTHFRG, 2.51; under CTHCSKSFRMRAGLIMHQVTHFRG, 1.86.

Turning to CTHCSKSFRIRAGLIMHQVTHFRG, the protein stability index came to 1.67. Take CTHCSKSFRDRAGLIMHQVTHFRG: the protein stability index stood at 3.41. The figure for CTHCSKSFRCRAGLIMHQVTHFRG is 2.43.

Values taken from the supplement of paper PMC10567573.
